Literature values as cited in patent US20250009916A1, “COMBINATION THERAPY FOR TREATING LUNG CANCER” (Novartis AG, priority 2021, published 2025).
Read-outs that look alike come from different tables or passages of the source.

Tests used:
[1] = 100 mCi dose; patients pretreated, with risk factors or abnormal renal and bone marrow function; cited from earlier work
GEP-NET = details: cited from earlier work
[2] = in vivo; cited from earlier work
ES-SCLC [3] = details: ES-SCLC patients, first-line, IMPower133; cited from earlier work
ES-SCLC [4] = details: ES-SCLC patients, durvalumab arm, CASPIAN; cited from earlier work
SCLC = details: cited from earlier work
advanced solid tumors = details: cited from earlier work
[5] = cited from earlier work
[6] = cited from earlier work; remark: listed apart in the source
[7] = 4 doses of 7.4 GBq/200 mCi every 8 weeks, GEP-NET patients
[8] = 17 SCLC patients, plus cisplatin/carboplatin and etoposide Q3W
[9] = 200-mg fixed dose cohort, evaluable n=13

Lutetium (^177Lu) oxodotreotide [[^177Lu] Lu-DOTA-TATE]
tolerability [1]: favorable tolerability
progression free survival and quality of life with approved regimen (GEP-NET; [7]): significant improvement of progression free survival (PFS) and quality of life
safety of approved regimen (GEP-NET; [7]): safe
median overall survival (GEP-NET; GEP-NET patients, phase 3 NETTER-1): 48 months
safety of additional doses exceeding 800 mCi cumulative dose (GEP-NET; literature): without additional safety signals
elimination route [2]: mainly via the renal route
interaction with drug transporters [2]: does not interact with drug transporters
metabolization [2]: very low (if any)

atezolizumab: immune checkpoint inhibitor antibody (Roche)
PFS (ES-SCLC [3]): 5.2 months

durvalumab: PD-L1 inhibitor
PFS (ES-SCLC [4]): 5.1 months

tislelizumab: anti-PD-1 monoclonal antibody (Beigene), heavy chain SEQ ID NO: 1, light chain SEQ ID NO: 5
ORR (SCLC; [8]): 77%
median OS (SCLC; [8]): 15.6 months
median PFS (SCLC; [8]): 6.9 months
antitumor activity (SCLC; tislelizumab 200 mg with platinum-based chemotherapy, including SCLC group): Encouraging antitumor activity
tolerability (SCLC; tislelizumab 200 mg with platinum-based chemotherapy): generally well tolerated
safety signals in combination with standard-of-care chemotherapies (advanced solid tumors; first-line lung cancer): did not lead to new safety signals
safety profile (advanced solid tumors; monotherapy or combined with platinum-based chemotherapy): manageable safety profile
rates of treatment-related adverse events and serious adverse events across regimens ([5]; 2 mg/kg and 5 mg/kg, once every 2 weeks and once every 3 weeks): comparable
treatment-related adverse events versus body-weight-based cohorts ([5]; 200-mg fixed dose cohort, Phase Ia Part 3): no unexpected treatment-related adverse events
patients with BOR of partial response (PR) [5, 9]: 23%
patients with BOR of progressive disease (PD) [5, 9]: 46%
patients with BOR of stable disease [5, 9]: 31%
serum exposure ([6]; 200-mg dose): fell between serum exposure observed after 2 mg/kg and 5 mg/kg doses
CL ([6]; Phase Ia): independent of body weight, ethnicity, and gender
